Consider 91 sequences from the supplement of paper PMC9112550, “Optimization of the antimicrobial peptide Bac7 by deep mutational scanning” (BMC Biology, 2022).
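Also: peptides expressed intracellularly from a pBAD plasmid library in pooled LB shake-flask culture, induced with 0.3% L-arabinose, DNA abundance read by NGS, three biological replicates, DESeq2 with apeglm shrinkage.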

The subject of this data set is Escherichia coli TOP10. Description: shrunken log2 fold change of peptide-encoding DNA abundance (4.5 h post-induction vs induction); higher = less antimicrobial activity (less host growth inhibition). The settings on record: time post-induction: 4.5 h; library: site-saturation at positions 5, 18, 19, 20.
RRIRFRPPRLPRPRPRPAGLPRP: the “shrunken log2 fold change” value was -0.0796. Under RRIRYRPPRLPRPRPRPIFKPRP stands -0.133; under RRIRSRPPRLPRPRPRPIWEPRP, 0.0462.

Turning to RRIRGRPPRLPRPRPRPCPNPRP, the “shrunken log2 fold change” value turned out to be 0.0353. With RRIRVRPPRLPRPRPRPYFSPRP, the “shrunken log2 fold change” value was -0.267. Take RRIRYRPPRLPRPRPRPIWAPRP: the “shrunken log2 fold change” value is -0.089. The figure for RRIRNRPPRLPRPRPRPMWQPRP is -0.222; for RRIRNRPPRLPRPRPRPTTDPRP it is -0.199. Under RRIRWRPPRLPRPRPRPAWKPRP stands 0.143.

Consider RRIRTRPPRLPRPRPRPCSWPRP, for which the “shrunken log2 fold change” value came out at 0.0291. Regarding RRIRRRPPRLPRPRPRPCFVPRP, the “shrunken log2 fold change” value is 0.0292. As to RRIRHRPPRLPRPRPRPKKKPRP, the “shrunken log2 fold change” value was -0.0281. With RRIRDRPPRLPRPRPRPTKRPRP, the “shrunken log2 fold change” value came to 0.123. The figure for RRIRWRPPRLPRPRPRPMVKPRP is 0.17; for RRIRQRPPRLPRPRPRPDFMPRP it is -0.316; for RRIRMRPPRLPRPRPRPYEMPRP it is 0.0693. The figure for RRIRERPPRLPRPRPRPHAQPRP is -0.0243; for RRIRWRPPRLPRPRPRPPWEPRP it is 0.541. Turning to RRIRGRPPRLPRPRPRPARVPRP, the “shrunken log2 fold change” value stood at 0.614.

As to RRIRFRPPRLPRPRPRPQCYPRP, the “shrunken log2 fold change” value is 0.04. As for RRIRSRPPRLPRPRPRPIINPRP, the “shrunken log2 fold change” value is -0.565. The figure for RRIRCRPPRLPRPRPRPDTGPRP is -0.879; for RRIRERPPRLPRPRPRPWVAPRP it is -0.00272. Under RRIRKRPPRLPRPRPRPCWGPRP stands 0.0634. The figure for RRIRNRPPRLPRPRPRPTFPPRP is -0.112; for RRIRNRPPRLPRPRPRPYLKPRP it is -0.151; for RRIRLRPPRLPRPRPRPKWKPRP it is 0.0281. As for RRIRKRPPRLPRPRPRPGAMPRP, the “shrunken log2 fold change” value is 0.639.

RRIRERPPRLPRPRPRPCGTPRP: the “shrunken log2 fold change” value is -0.00758. The figure for RRIRYRPPRLPRPRPRPLHWPRP is -0.211; for RRIRQRPPRLPRPRPRPEMVPRP it is -0.0549; for RRIRGRPPRLPRPRPRPPPAPRP it is 1.57.

Turning to RRIRDRPPRLPRPRPRPIRAPRP, the “shrunken log2 fold change” value was determined as 0.0872.

Turning to RRIRTRPPRLPRPRPRPEMYPRP, the “shrunken log2 fold change” value was -0.012.

With RRIRIRPPRLPRPRPRPQLLPRP, the “shrunken log2 fold change” value is -0.0818. RRIRIRPPRLPRPRPRPQQNPRP: the “shrunken log2 fold change” value is -0.318.

In the case of RRIRKRPPRLPRPRPRPWGVPRP, the “shrunken log2 fold change” value amounted to 0.291.

With RRIRWRPPRLPRPRPRPRCIPRP, the “shrunken log2 fold change” value is -0.036. With RRIRYRPPRLPRPRPRPHAFPRP, the “shrunken log2 fold change” value stood at 0.0566. As for RRIRCRPPRLPRPRPRPRFCPRP, the “shrunken log2 fold change” value stood at 0.071. The figure for RRIRYRPPRLPRPRPRPVSYPRP is -0.00297; for RRIRERPPRLPRPRPRPVWDPRP it is 0.00068; for RRIRTRPPRLPRPRPRPTPHPRP it is 0.283.

As to RRIRTRPPRLPRPRPRPNKHPRP, the “shrunken log2 fold change” value is -0.448.

Take RRIRDRPPRLPRPRPRPTYQPRP: the “shrunken log2 fold change” value was -0.0238. The figure for RRIRERPPRLPRPRPRPVSLPRP is -0.013; for RRIRIRPPRLPRPRPRPTDKPRP it is -0.406. For the sequence RRIRPRPPRLPRPRPRPITCPRP, the “shrunken log2 fold change” value is 0.102. Under RRIRCRPPRLPRPRPRPFCGPRP stands 0.011; under RRIRARPPRLPRPRPRPEIDPRP, 1.36; under RRIRDRPPRLPRPRPRPANSPRP, 2.98. For the sequence RRIRYRPPRLPRPRPRPYERPRP, the “shrunken log2 fold change” value was -0.00804. Under RRIRTRPPRLPRPRPRPMWNPRP stands -0.418; under RRIRSRPPRLPRPRPRPKCSPRP, -0.122. Under RRIRVRPPRLPRPRPRPLESPRP stands 0.114. Take RRIRYRPPRLPRPRPRPASGPRP: the “shrunken log2 fold change” value was -0.148. The figure for RRIRARPPRLPRPRPRPEQSPRP is 0.119; for RRIRWRPPRLPRPRPRPHMVPRP it is -0.069. Take RRIRCRPPRLPRPRPRPGQCPRP: the “shrunken log2 fold change” value was -0.11.

For RRIRDRPPRLPRPRPRPNLEPRP, the “shrunken log2 fold change” value was 0.27. For the sequence RRIRQRPPRLPRPRPRPSNNPRP, the “shrunken log2 fold change” value was -0.729. As to RRIRMRPPRLPRPRPRPSFCPRP, the “shrunken log2 fold change” value is -0.0778.

For the sequence RRIRNRPPRLPRPRPRPKECPRP, the “shrunken log2 fold change” value worked out at 0.00801. Under RRIRGRPPRLPRPRPRPIRTPRP stands 0.21; under RRIRMRPPRLPRPRPRPWAFPRP, -0.121. With RRIRKRPPRLPRPRPRPWACPRP, the “shrunken log2 fold change” value is 0.0099. The figure for RRIRDRPPRLPRPRPRPKFFPRP is 0.136; for RRIRKRPPRLPRPRPRPCGVPRP it is 0.143; for RRIRHRPPRLPRPRPRPSFVPRP it is -0.38. As to RRIRYRPPRLPRPRPRPNREPRP, the “shrunken log2 fold change” value came to 0.00551. As to RRIRPRPPRLPRPRPRPDPRPRP, the “shrunken log2 fold change” value turned out to be 0.649. Under RRIRLRPPRLPRPRPRPTHGPRP stands 0.213; under RRIRWRPPRLPRPRPRPSNVPRP, 0.108.

Take RRIRTRPPRLPRPRPRPHPIPRP: the “shrunken log2 fold change” value is -0.165. In the case of RRIRVRPPRLPRPRPRPPSHPRP, the “shrunken log2 fold change” value is -0.0316. Under RRIRKRPPRLPRPRPRPMNYPRP stands 0.474. As for RRIRWRPPRLPRPRPRPSVDPRP, the “shrunken log2 fold change” value worked out at 0.0991. The figure for RRIRLRPPRLPRPRPRPKTQPRP is -0.189. RRIRWRPPRLPRPRPRPYGWPRP: the “shrunken log2 fold change” value is -0.0271.

Regarding RRIRPRPPRLPRPRPRPIQTPRP, the “shrunken log2 fold change” value was -0.0617. Under RRIRDRPPRLPRPRPRPRMDPRP stands -0.0354; under RRIRCRPPRLPRPRPRPIPHPRP, -0.744; under RRIRCRPPRLPRPRPRPPYWPRP, 0.279. As for RRIRVRPPRLPRPRPRPKVDPRP, the “shrunken log2 fold change” value worked out at 0.0982.

With RRIRFRPPRLPRPRPRPAATPRP, the “shrunken log2 fold change” value worked out at 0.372.

Take RRIRWRPPRLPRPRPRPPDWPRP: the “shrunken log2 fold change” value is 1.19. As to RRIRWRPPRLPRPRPRPVWHPRP, the “shrunken log2 fold change” value was 0.387. The figure for RRIRSRPPRLPRPRPRPTWYPRP is -0.123.

For the sequence RRIRGRPPRLPRPRPRPRECPRP, the “shrunken log2 fold change” value stood at 0.562.

As to RRIRIRPPRLPRPRPRPMACPRP, the “shrunken log2 fold change” value was -0.321.

On to RRIRARPPRLPRPRPRPLIYPRP, for which the “shrunken log2 fold change” value was determined as 0.0475.
